How the values were obtained:
[1] = IP / ubiquitin blot, KG1a-TWIST1 and SKM1; details: glycan lost; control: non-treated cells
[2] = CHX chase, TWIST1 stability, KG1a-TWIST1 and SKM1; details: glycan lost; control: untreated cells
[3] = Western blot, KG1a-TWIST1 and SKM1; details: glycan lost; control: untreated cells
[4] = CHX chase, TWIST1 stability, HEK-293T; details: glycan lost; control: WT flag-TWIST1
[5] = IP / ubiquitin blot, HEK-293T; details: glycan lost; control: WT flag-TWIST1
[6] = Western blot, HEK-293T; details: glycan lost; control: WT flag-TWIST1

Protein | other: ubiquitination [1] | degradation_or_half_life [2] | expression_or_secretion [3] | degradation_or_half_life [4] | other: ubiquitination [5] | expression_or_secretion [6]
TWIST1: OSMI-1 (protein) parent chain: MMQDVSSSPVSPADDSLSNSEEEPDRQQPPSGKRGGRKRRSSRRSAGGGAGPGGAAGGGVGGGDEPGSPAQGKRGKKSAGCGGGGGAGGGGGSSSGGGSPQSYEELQTQRVMANVRERQRTQSLNEAFAALRKIIPTLPSDKLSKIQTLKLAARYIDFLYQVLQSDELDSKMASCSYVAHERLSYAFSVWRMEGAWSMSASH | increases | decreases | decreases | – | – | –
TWIST1: S31A (protein) parent chain: MMQDVSSSPVSPADDSLSNSEEEPDRQQPPSGKRGGRKRRSSRRSAGGGAGPGGAAGGGVGGGDEPGSPAQGKRGKKSAGCGGGGGAGGGGGSSSGGGSPQSYEELQTQRVMANVRERQRTQSLNEAFAALRKIIPTLPSDKLSKIQTLKLAARYIDFLYQVLQSDELDSKMASCSYVAHERLSYAFSVWRMEGAWSMSASH | – | – | – | decreases | increases | decreases

— paper PMC10514931
